The numbers were not newly measured in patent US20190382462A1, “METHODS AND COMPOSITIONS FOR TREATING HPA HYPERACTIVITY” (priority 2017, published 2019), which cites them from elsewhere.

Like-named read-outs stand apart in the source and are kept apart here. Where no end group is shown, it is not given here.

For data set [1] the following is noted: human serum.
Data set [2] addresses T1, CRF-BP (Homo sapiens, UniProt P24387).
T1 sequence (P24387 25-322): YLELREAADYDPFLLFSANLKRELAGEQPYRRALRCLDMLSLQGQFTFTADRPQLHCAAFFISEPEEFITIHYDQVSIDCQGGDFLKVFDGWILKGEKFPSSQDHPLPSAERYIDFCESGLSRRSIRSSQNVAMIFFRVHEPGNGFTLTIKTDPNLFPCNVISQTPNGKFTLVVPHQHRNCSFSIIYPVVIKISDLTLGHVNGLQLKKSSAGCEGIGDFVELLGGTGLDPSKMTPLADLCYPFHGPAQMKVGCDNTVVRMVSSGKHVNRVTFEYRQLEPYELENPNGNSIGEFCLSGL

In data set [3] the target is T2, CRF1 (Homo sapiens, UniProt P34998).
T2 sequence (P34998 24-415): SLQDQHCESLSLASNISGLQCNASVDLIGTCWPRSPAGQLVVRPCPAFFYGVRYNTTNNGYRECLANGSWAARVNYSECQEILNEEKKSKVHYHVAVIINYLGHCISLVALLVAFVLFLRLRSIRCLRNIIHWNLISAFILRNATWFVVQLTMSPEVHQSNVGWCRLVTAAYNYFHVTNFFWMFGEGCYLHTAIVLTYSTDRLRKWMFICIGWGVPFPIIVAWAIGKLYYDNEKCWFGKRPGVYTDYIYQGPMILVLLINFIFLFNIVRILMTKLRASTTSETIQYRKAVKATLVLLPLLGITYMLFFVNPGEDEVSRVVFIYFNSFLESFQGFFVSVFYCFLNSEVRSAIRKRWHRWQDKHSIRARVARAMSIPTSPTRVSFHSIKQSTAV

Broadly, the half-life is the time needed for the level to fall by half in the phase considered. Regarding “Factor IX: other formulations of Factor IX alone”, the half-life (b170, Alprolix: terminal half-life in clinical trials) was ~18 h. As for “Human transferrin: highly abundant serum glycoprotein that carries iron”, in data set [1], the half-life was 170 to 288 h. As for “Ucn2: CRF-related peptide, selective CRF2 agonist (IVLSLDVPIGLLQILLEQARARAAREQATTNARILARVGHC; ends and bridges not checked; UniProt Q96RP3 72-112, looked up)”, in data set [2], the “affinity for CRF-BP” value is recorded as “neither Ucn2 nor Ucn3 exhibits appreciable affinity”. As for “Ucn3: CRF-related peptide, selective CRF2 agonist (FTLSLDVPTNIMNLLFNIAKAKNLRAQAAANAHLMAQI; ends and bridges not checked; UniProt Q969E3 120-157, looked up)”, in data set [2], the “affinity for CRF-BP” value is recorded as “neither Ucn2 nor Ucn3 exhibits appreciable affinity”. On to “aglycosylated form of human transferrin: aglycosylated form, about 2-8% of the total transferrin pool”, for which the half-life in data set [1] is 336 to 408 h. As to bevacizumab: therapeutic antibody, under “in vivo”, the “circulating serum concentration reported for therapeutic antibody” value was 10 to 30 µg/mL. For darbepoetin alfa, for the setting “in vivo”, the “serum half-life compared to epoetin alpha and epoetin beta” value was 3 fold.

On to etanercept, for which, where the note is “b287, b290”, the half-life result is “roughly 70 hours”.

Take “urocortin 1 (DNPSLSIDLTFHLLRTLLELARTQSQRERAEQNRIIFDSV; ends and bridges not checked; UniProt P55089 83-122, looked up) [Ucn1]”: the “binding affinity for CRF1 relative to CRF” value in data set [3] is given as “threefold higher”.
